Assay results reported in publication PMC1540706 (2006).
Residue numbers refer to the chain shown, from its start. Names and notes keep the numbering of the source. Blank lines part the entries; values can stand above or below the binder they belong to.

T1: human β2-appendage (700–937), side site mutant used for ITC (human, UniProt P63010 700-937)
T1 chain: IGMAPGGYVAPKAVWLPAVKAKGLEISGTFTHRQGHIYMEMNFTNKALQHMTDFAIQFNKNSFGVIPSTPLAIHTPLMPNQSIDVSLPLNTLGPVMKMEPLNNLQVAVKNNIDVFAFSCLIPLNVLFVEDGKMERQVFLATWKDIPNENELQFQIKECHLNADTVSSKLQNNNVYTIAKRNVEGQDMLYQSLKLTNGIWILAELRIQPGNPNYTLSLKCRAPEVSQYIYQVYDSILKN

B1: 6× His human Eps15-MD (530–791) (domain or fragment)
chain: STSSSETANLNEHVEGQSNLESEPIHQESPARSSPELLPSGVTDENEVTTAVTEKVCSELDNNRHSKEEDPFNVDSSSLTGPVADTNLDFFQSDPFVGSDPFKDDPFGKIDPFGGDPFKGSDPFASDCFFRQSTDPFATSSTDPFSAANNSSITSVETLKHNDPFAPGGTVVAASDSATDPFASVFGNESFGGGFADFSTLSKVNNEDPFRSATSSSVSNVVITKNVFEETSVKSEDEPPALPPKIGTPTRPCPLPPGKRSI
B2: human β2-appendage (700–937) used for ITC (domain or fragment)
chain: T1 chain with A116Y
B3: human β2-appendage (700–937) R879A used for ITC (domain or fragment)
chain: T1 chain with A116Y, R180A
B4: human β2-appendage (700–937), top site mutant used for ITC (domain or fragment)
chain: T1 chain with A116Y, Y189V
B5: Epsin1-MD (protein)
chain: TGGKEESSLMDLADVFTTPAPPQASDPWGGPASVPTAVPVAAAASDPWGAPAVPPAADPWGGAAPTPASGDPWRPAAPTGPSVDPWGGTPAPAAGEGPTSDPWGSADGGAPVSGPPSSDPWAPAPAFSDPWGGSPAKPSSNGTAVGGFDTEPD

Tests used:
Test in all cases: ITC
[1] = biological target: AP2 α-appendage appendage (Mus musculus, UniProt P17427)
[2] = biological target: B3
[3] = biological target: T1, human β2-appendage (700–937), side site …
[4] = biological target: B2
[5] = biological target: B4
ARH peptide = ARH peptide (UniProt Q5SW96)
Eps15 P-long peptide = Eps15 P-long peptide (UniProt P42566)
Epsin P1 = biological target: Epsin P1
Epsin P4 = biological target: Epsin P4
epsinR peptide = epsinR peptide (UniProt Q14677)

AP2 α-appendage appendage, sequence (P17427 701-938): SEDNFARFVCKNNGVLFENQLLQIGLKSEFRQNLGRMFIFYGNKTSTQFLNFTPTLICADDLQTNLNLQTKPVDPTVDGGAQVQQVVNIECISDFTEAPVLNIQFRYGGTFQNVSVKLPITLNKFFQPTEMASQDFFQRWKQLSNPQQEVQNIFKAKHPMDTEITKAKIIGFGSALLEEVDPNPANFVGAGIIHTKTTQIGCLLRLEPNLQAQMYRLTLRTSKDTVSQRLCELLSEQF

Kd [1]: 2.5 µM
Binder: SFFEDNFVPEIS [amphiphysin DNF 12mer peptide]

Kd [2]: 0.17 µM
Kd [3]: 1.7 µM
Binder: DDDIVFEDFARQRLKGMKDD [β-arrestin P-long peptide]

Binder: B1
Kd [4]: 18 µM
Kd [5]: 11 µM

Kd [5]: 59 µM
Binder: SFGDGFADFSTL [Eps15 P-short peptide]

Binder: B2
Kd (ARH peptide): 4.7 µM
Kd (Eps15 P-long peptide): 12 µM
Kd (Epsin P1): 131 µM
Kd (Epsin P4): 160 µM

Binder: B3
Kd (ARH peptide): 5.5 µM

Binder: B4
Kd (epsinR peptide): 77 µM

Binder: B5
Kd [4]: 35 µM
